Assay results reported in patent US11485769B2, “Peptides and combination of peptides for use in immunotherapy and methods for generating scaffolds for the use against pancreatic cancer and other cancers” (Immatics Biotechnologies GmbH, priority 2015, dated 2022).

These substances were tested against HLA-A*02:01 (Homo sapiens, UniProt P04439, D140Y/D185E/D98H/E176V/E277Q/G131W/G231S/I119V/I121R/I166T/I218V/L300P/L318F/N151K/N90K/P208A/P217A/Q86G/Q94H/R138H/R169H/T345S) (assay: MHC binding assay (UV-ligand exchange, beta2m ELISA, peptide exchange yield)). Conditions: binding to HLA-A*02:01 ranged by peptide exchange yield, β2m ELISA.
Source text: Candidate peptides for T cell based therapies according to the present invention were further tested for their MHC binding capacity (affinity). The individual peptide-MHC complexes were produced by UV-ligand exchange, where a UV-sensitive peptide is cleaved upon UV-irradiation, and exchanged with the peptide of interest as analyzed. Only peptide candidates that can effectively bind and stabilize the peptide-receptive MHC molecules prevent dissociation of the MHC complexes. To determine the yield of the exchange reaction, an ELISA was performed based on the detection of the light chain (β2m) of stabilized MHC complexes. The assay was performed as generally described in Rodenko et al. (Rodenko et al., 2006).
96 well MAXISorp plates (NUNC) were coated over night with 2 ug/ml streptavidin in PBS at room temperature, washed 4× and blocked for 1 h at 37° C. in 2% BSA containing blocking buffer. Refolded HLA-A*02:01/MLA-001 monomers served as standards, covering the range of 15-500 ng/ml. Peptide-MHC monomers of the UV-exchange reaction were diluted 100 fold in blocking buffer. Samples were incubated for 1 h at 37° C., washed four times, incubated with 2 ug/ml HRP conjugated anti-μ2m for 1h at 37° C., washed again and detected with TMB solution that is stopped with […]. Absorption was measured at 450 nm. Candidate peptides that show a high exchange yield (preferably higher than 50%, most preferred higher than 75%) are generally preferred for a generation and production of antibodies or fragments thereof, and/or T cell receptors or fragments thereof, as they show sufficient avidity to the MHC molecules and prevent dissociation of the MHC complexes.
MHC class I binding scores. Binding of HLA-class I restricted peptides to HLA-A*02:01 was ranged by peptide exchange yield: ≥10%=+; ≥20%=++; ≥50=+++; >75%=++++

Peptide exchange (MHC class I binding score)	Substance
“++” (≥20%=++)	1 (FVDTRTLL; listed as Homo sapiens) [compound 1]
“+++” (≥50=+++)	2 (FGYDGDFYRA; listed as Homo sapiens) [compound 2]
“+++” (≥50=+++)	3 (ILIGETIKI; listed as Homo sapiens) [compound 3]
“+++” (≥50=+++)	4 (ALDPAAQAFLL; listed as Homo sapiens) [compound 4]
“+++” (≥50=+++)	5 (ALLTGIISKA; listed as Homo sapiens) [compound 5]
“+++” (≥50=+++)	6 (ALTGIPLPLI; listed as Homo sapiens) [compound 6]
“+++” (≥50=+++)	7 (ALVDIVRSL; listed as Homo sapiens) [compound 7]
“+++” (≥50=+++)	8 (ALYTGSALDFV; listed as Homo sapiens) [compound 8]
“++” (≥20%=++)	9 (QIIDAINKV; listed as Homo sapiens) [compound 9]
“++” (≥20%=++)	10 (VLLDKIKNL; listed as Homo sapiens) [compound 10]
“++” (≥20%=++)	11 (ALYYNPHLL; listed as Homo sapiens) [compound 11]
“+++” (≥50=+++)	12 (AQYKFVYQV; listed as Homo sapiens) [compound 12]
“++” (≥20%=++)	13 (FIDSSNPGL; listed as Homo sapiens) [compound 13]
“+++” (≥50=+++)	14 (FIIDNPQDLKV; listed as Homo sapiens) [compound 14]
“+++” (≥50=+++)	15 (FILANEHNV; listed as Homo sapiens) [compound 15]
“+++” (≥50=+++)	16 (GLIDYDTGI; listed as Homo sapiens) [compound 16]
“+++” (≥50=+++)	17 (GLIDYDTGIRL; listed as Homo sapiens) [compound 17]
“++” (≥20%=++)	18 (ALFVRLLAL; listed as Homo sapiens) [compound 18]
“+++” (≥50=+++)	19 (ALWHDAENQTVV; listed as Homo sapiens) [compound 19]

Peptide exchange (MHC class I binding score)	Substance
“+++” (≥50=+++)	20 (GLIDIENPNRV; listed as Homo sapiens) [compound 20]
“+++” (≥50=+++)	21 (GLVDGRDLVIV; listed as Homo sapiens) [compound 21]
“+++” (≥50=+++)	22 (ILSTEIFGV; listed as Homo sapiens) [compound 22]
“++” (≥20%=++)	23 (KLDSSGGAVQL; listed as Homo sapiens) [compound 23]
“++” (≥20%=++)	24 (KLSENAGIQSL; listed as Homo sapiens) [compound 24]
“++” (≥20%=++)	25 (LINPNIATV; listed as Homo sapiens) [compound 25]
“+++” (≥50=+++)	26 (SLYTALTEA; listed as Homo sapiens) [compound 26]
“+++” (≥50=+++)	27 (TLLAHPVTL; listed as Homo sapiens) [compound 27]
“+++” (≥50=+++)	28 (VLDEFYSSL; listed as Homo sapiens) [compound 28]
“++++” (>75%=++++)	29 (YILPFSEVL; listed as Homo sapiens) [compound 29]
“++” (≥20%=++)	30 (YIYKDTIQV; listed as Homo sapiens) [compound 30]
“+++” (≥50=+++)	31 (YLDSMYIML; listed as Homo sapiens) [compound 31]
“++” (≥20%=++)	32 (YVDDGLISL; listed as Homo sapiens) [compound 32]
“++” (≥20%=++)	34 (FLEDDDIAAV; listed as Homo sapiens) [compound 34]
“+++” (≥50=+++)	35 (FLFPSQYVDV; listed as Homo sapiens) [compound 35]
“++” (≥20%=++)	36 (FLGDLSHLL; listed as Homo sapiens) [compound 36]
“++” (≥20%=++)	37 (FLNPDEVHAI; listed as Homo sapiens) [compound 37]
“+++” (≥50=+++)	38 (FLTEAALGDA; listed as Homo sapiens) [compound 38]
“++” (≥20%=++)	39 (FLTPSIFII; listed as Homo sapiens) [compound 39]

Peptide exchange (MHC class I binding score)	Substance
“++” (≥20%=++)	40 (GLAPQIHDL; listed as Homo sapiens) [compound 40]
“++” (≥20%=++)	41 (GLLAGNEKLTM; listed as Homo sapiens) [compound 41]
“+++” (≥50=+++)	42 (ILSDMRSQYEV; listed as Homo sapiens) [compound 42]
“++” (≥20%=++)	43 (HLGVKVFSV; listed as Homo sapiens) [compound 43]
“+++” (≥50=+++)	44 (ILAQVGFSV; listed as Homo sapiens) [compound 44]
“+++” (≥50=+++)	45 (ILYSDDGQKWTV; listed as Homo sapiens) [compound 45]
“+++” (≥50=+++)	46 (TMVEHNYYV; listed as Homo sapiens) [compound 46]
“+++” (≥50=+++)	47 (LIYKDLVSV; listed as Homo sapiens) [compound 47]
“+++” (≥50=+++)	48 (LLDENGVLKL; listed as Homo sapiens) [compound 48]
“++” (≥20%=++)	49 (LLDGFPRTV; listed as Homo sapiens) [compound 49]
“+++” (≥50=+++)	50 (LLFGSDGYYV; listed as Homo sapiens) [compound 50]
“++” (≥20%=++)	51 (LLGPAGARA; listed as Homo sapiens) [compound 51]
“+++” (≥50=+++)	52 (LLSDPIPEV; listed as Homo sapiens) [compound 52]
“+++” (≥50=+++)	53 (LLWDPSTGKQV; listed as Homo sapiens) [compound 53]
“+++” (≥50=+++)	54 (LTQPGPIASA; listed as Homo sapiens) [compound 54]
“++” (≥20%=++)	55 (NLAPAPLNA; listed as Homo sapiens) [compound 55]
“++” (≥20%=++)	56 (NLIGVTAEL; listed as Homo sapiens) [compound 56]
“+++” (≥50=+++)	57 (RLSELGITQA; listed as Homo sapiens) [compound 57]
